From patent US20250049970A1, “DLL3 TARGETING PEPTIDES AND CONSTRUCTS THEREOF” (MARIANA ONCOLOGY INC., priority 2023, published 2025)
*1 amine or outer side, *2 acyl side, *3 side chain or, on linkers, in order; H or OH if unused. Bridges are numbered along the chain shown (N, C = ends). [ ]: non-standard residue; d: D form. The star is where a group is joined. Ala(piperidin-4-yl) = O=C([C@H](CC1CCN([*:3])CC1)N[*:1])[*:2]; DOTA = O=C(O)CN1CCN(CC(=O)O)CCN(CC(=O)*)CCN(CC(=O)O)CC1; 2Nal = N[C@@H](Cc1ccc2ccccc2c1)C(=O)O; NMetBuAla = CN[C@@H](CC(C)(C)C)C(=O)O; Chg = N[C@H](C(=O)O)C1CCCCC1; Tle = CC(C)(C)[C@H](N)C(=O)O; CH2 = C([*:1])[*:2]

T1: DLL3 on CT26.DLL3 cells (Homo sapiens (Human), UniProt Q9NYJ7 27-618)
T1 construct: CT26.DLL3 are engineered cells to express DLL3
T1 sequence: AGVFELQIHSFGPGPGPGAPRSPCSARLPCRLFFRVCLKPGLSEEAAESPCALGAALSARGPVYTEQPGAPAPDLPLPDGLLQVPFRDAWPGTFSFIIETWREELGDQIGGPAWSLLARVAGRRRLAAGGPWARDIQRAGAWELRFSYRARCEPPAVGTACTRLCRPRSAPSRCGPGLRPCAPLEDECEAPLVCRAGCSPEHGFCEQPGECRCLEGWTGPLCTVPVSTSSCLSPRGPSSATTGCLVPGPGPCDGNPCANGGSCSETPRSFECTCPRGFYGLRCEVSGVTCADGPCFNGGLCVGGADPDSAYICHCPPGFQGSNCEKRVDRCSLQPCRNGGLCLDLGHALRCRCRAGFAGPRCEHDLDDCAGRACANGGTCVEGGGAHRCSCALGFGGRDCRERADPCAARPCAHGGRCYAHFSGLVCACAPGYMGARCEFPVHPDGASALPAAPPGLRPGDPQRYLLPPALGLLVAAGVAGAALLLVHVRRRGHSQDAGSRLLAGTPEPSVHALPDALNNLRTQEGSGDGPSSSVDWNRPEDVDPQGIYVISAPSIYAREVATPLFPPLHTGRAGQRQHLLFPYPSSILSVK

T2: DLL3 on SHP-77 cells (human, UniProt Q9NYJ7 27-618)
T2 construct: SHP-77 cells are human-derived, non-engineered SCLC cells
T2 sequence: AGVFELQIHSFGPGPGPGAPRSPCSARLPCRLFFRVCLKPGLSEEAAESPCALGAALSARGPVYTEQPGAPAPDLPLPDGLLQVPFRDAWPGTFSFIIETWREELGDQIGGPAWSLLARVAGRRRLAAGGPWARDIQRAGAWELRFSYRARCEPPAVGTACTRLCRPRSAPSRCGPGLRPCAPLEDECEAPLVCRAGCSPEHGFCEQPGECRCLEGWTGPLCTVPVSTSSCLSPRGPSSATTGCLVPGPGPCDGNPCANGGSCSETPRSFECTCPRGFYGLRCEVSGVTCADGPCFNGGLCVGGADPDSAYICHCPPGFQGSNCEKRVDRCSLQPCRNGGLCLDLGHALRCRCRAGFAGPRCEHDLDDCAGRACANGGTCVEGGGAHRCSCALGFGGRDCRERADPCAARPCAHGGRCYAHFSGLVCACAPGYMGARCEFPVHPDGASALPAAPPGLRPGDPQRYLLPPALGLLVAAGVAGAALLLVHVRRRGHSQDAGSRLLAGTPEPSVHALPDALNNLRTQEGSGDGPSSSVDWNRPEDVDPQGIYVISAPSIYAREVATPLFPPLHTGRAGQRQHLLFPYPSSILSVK


Legend:
[1] = target: T1, DLL3 on CT26.DLL3 cells; experiment: [177Lu]Lu-labelled peptide on CT26.DLL3 cells, 1 h 37 C, gamma counter; A = %<=25
Experimental: Adherent cell studies: The cells were cultured in appropriate culture media (20 mL) in tissue culture treated T150 flasks at 37° C. and 5% C02. Adherent cells were detached (60-70% confluent) using 5 mL Versene at 37° C. for 3 minutes. After confirming the viability using countess and count of detached cells using Trypan blue, the cells were centrifuged at 4° C. for 5 minutes (1,000 rpm). The cell pellet obtained was washed once with PBS and resuspended in 1% PBSA to obtain the desired cell concentration (5-25 million cells/mL).
Total uptake: Cells were incubated with 300 μL (0.8 μCi) of the incubation buffer (containing radiolabeled peptide [¹⁷⁷Lu]Lu-test peptide) for 1 hour at 37° C. (Table 10). Post incubation, the cells were pelleted and washed 2 times using cold PBS+1% BSA. The supernatant and washes were combined and counted together as “unbound fraction” in a gamma counter. The cells were then resuspended in 300 μL of 1% PBS+1% BSA and counted in the gamma counter as “bound fraction”.

[2] = target: T2, DLL3 on SHP-77 cells; experiment: [177Lu]Lu-labelled peptide on SHP-77 cells, 1 h 37 C, gamma counter; C = %>50

Row | % Binding [1] | % Binding [2] | Binder
1 | ≤ 25% | – | Ac-WT[Tle]CNN[2Nal]K(DOTA)DCWP-NH2 (disulfide 4-10; SMILES CC(=O)N[C@@H](Cc1c[nH]c2ccccc12)C(=O)N[C@H](C(=O)N[C@H](C(=O)N[C@H]1CSSC[C@@H](C(=O)N[C@@H](Cc2c[nH]c3ccccc23)C(=O)N2CCC[C@H]2C(N)=O)NC(=O)[C@H](CC(=O)O)NC(=O)[C@H](CCCCNC(=O)CN2CCN(CC(=O)O)CCN(CC(=O)O)CCN(CC(=O)O)CC2)NC(=O)[C@H](Cc2ccc3ccccc3c2)NC(=O)[C@H](CC(N)=O)NC(=O)[C@H](CC(N)=O)NC1=O)C(C)(C)C)[C@@H](C)O) [Cpd No. 315]
2 | – | > 50% | Ac-WT[NMetBuAla]C[Ala(piperidin-4-yl)]N[2Nal]K(DOTA)DCWP-OH (linker 4-10 via CH2) [Cpd No. 442]
3 | ≤ 25% | – | Ac-WT[Chg]CNN[2Nal]K(DOTA)DCWP-NH2 (disulfide 4-10) [Cpd No. 318]
